Consider 13 molecules from patent US20230365685A1 (SUZHOU NEOLOGICS BIOSCIENCE, published 2023).

First the molecules themselves.
B1: 38A8 (antibody, V domains shown)
VH: QVQLQQPGAELVKPGASVKMSCKASGYTFTTYNMHWVKQTPGQGLEWIGGIYPGNGDTSYNQKFKGKATLTADKSSSTAYMQLSSLTSEDSAVYYCARSYYTFDAMDCWGQGTSVTVSS
VL: DIVMSQSPSSLAVSAGEKVTMSCKSSQSLLNSRTRKNYLAWYQQKPGRSPKLLIYWASTRESGVPDRFTGGGSGTDFTLTISSVQAEDLAVYYCKQSYSLLTFGAGTKLELK
B2: CH 5# (antibody, V domains shown)
VH: QVQLQQSGPDLVKPGASVKISCKASGYSFTGYYMHWVKQSHGKSLEWIGRVNPNNGGTDYDQKFKGKAILSVDKSSNTAYMELRSLTSEDSAVYYCAREGEYFDYYAMDYWGQGTTVTVSS
VL: DIELTQSPASLAVSLGQRATISCRASESVEYYGTSLMQWYQQKPGQPPKLLIYAASNVESGVPARFSGSVSGTDFSLNIHPVEEDDIAMYFCQQSRKVPITFGSGTKLEIK
B3: CH 8# (antibody, V domains shown)
VH: QVKLQQSGPDLVKPGASVKISCKASGYSFTGYYMHWVKQSHGKSLEWIGRVYPNNGGTSYNQKFKGKAILTVDKSSSTAYMELRSLTSEDSAVYYCAREGEYFDYFAMDYWGQGTTVTVSS
VL: DIELTQSPASLAVSLGQRATISCRASESVEYYGTSLMQWYQQKPGQPPKLLIYAASNVESGVAARFSGSGSGTDFSLNIHPVEEDDIAMYFCQPSRKVPYTFGGGTKLEIK
B4: 50H9 (antibody, V domains shown)
VH: EVQLVESGGDLVKPGGSLKLSCAASGFTFSTNGMSWVRQIPDKRLEWVATISSGGSNTYYPDSVKGRFTISRDNAKNTLYLQMSSLKSEDTAMYYCARRSELGPFAYWGQGTLVTVSA
VL: DVQMIQSPSSLSASLGDIVTMTCQASQGSSVNLNWFQQKPGKSPKLLIHGSNILEDGVPSRFSGSRYGTDFTLTISSLENEDMATYFCLQHSYLPYTFGGGTKLEIK
B5: 38F8 (antibody, V domains shown)
VH: EVQLQQLGAELVKPGASVKISCKASGYIFTDYSMDWVKQSHGESLEWIGDINPNYDSLSYNQKFKGKATLTVDKSSSTAYMELRSLTSEDTAVYYCARRGYGKDYFDFWGQGTSLTVSS
VL: TWGMTQTTSSLSASLGDRVTISCRASQDISNYLNWYQQKPDGTVKLLIYHTSRLYSGVPSRFTGSGSGTDYSLTISNLEQEDIATYFCQQGNTLPLTFGAGTKLELK
B6: 84G10 (antibody, V domains shown)
VH: QVQLQQSGGELVRPGSSVKISCKASGYAFSSYWMNWVKQRPGQGLEWIGQIYPGEGDTNYNGKFKGKATLTADKSSSTAYMQLSSLTSEDSAVYFCARGHFYGSSYDWFAYWGQGTLVTVSA
VL: DIQMTQSPASLSASVGETVTITCRASENINSYLAWYQQKQGKSPQLLVYHAKTLASGVPSRFSGSGSGTQFSLKINSLQPEDFGSYYCQHHYGTPLTFGAGARLELK
B7: 40F11 (antibody, V domains shown)
VH: QIQLVQSGPELKKPGETVRISCKASGYTFRTAEMQWVQKMPGRGLKWIGWINTRSGVPKYAEDFKGRFALSLETSATTAYLQISNLKNEDTATYFCTRGTYAMDYWGQGTSVTVSS
VL: ENVLTQSPAIMSASPGEKVTMTCRASSIVSSSYLHWYQQKSGASPKLWIYSTSNLPSGVPARFSGSGSGTFYSLTVSSVESEDAATYYCQQYSGYPYTFGGGTKLEIK
B8: 36A2 (antibody, V domains shown)
VH: DVQLVESGGGLVQPGGSRKLSCAASGFTFSSFEMHWVRQAPETGLEWVAYISGGSTTIYYADTMKGRFTISRDNPENTLFLQMTSLRSEDTAIYYCVRSYYGLLDYWGQGTTLTVSS
VL: NIMMTQSPSSLSVSTGEKVTMSCKSSQSVLHSSNQKNFLAWFQQKPGQSPKLLIYWASTRESGVPDRFTGSGSGTDFTLTINNVQPEDLAVYYCHQYLSSLTFGAGTKLELK
notes: also called 36A12
B9: 18C6 (antibody, V domains shown)
VH: QVQLQQPGAEIVMPGASVKMSCKASGYKFTDFLMHWVKQRPGQGLEWIGAIDTSDSYASYNQKFKGKATLTLDESSSTAYMQLSSLTSEDSAVYYCSREAMDYWGQGTSVTVSS
VL: DVVMTQTPLSLPVSLGDQASISCRSSQSLVHSNGNTYLHWFLQKPGQSPKLLIYKVSNRFSGVPDRFSGSGSGTDFTLKISRVEAEDLGVYFCCQSTHVPPLTFGAGTKLELK
B10: CH 9# (antibody, V domains shown)
VH: QVKLQESGPGLVAPSQSLSITCTVSGFSLTGYGVHWVRQPPGKGLEWLGMIWGDGSTDYNSALKSRLSISKDNSKSQVFLKMNSLQTDDTARYYCARDRGNHWYFDVWGQGTTVTVSS
VL: DIELTQSPAILSASPGEKVTMTCRASSSVSYMHWYQQKPGSSPKPWIYATSNLASGVPARFSGSGSGTSYSLTISRVEAEDAATYYCQQWSSNPLTFGAGTKLEIK
B11: 36B11 (antibody, V domains shown)
VH: QVTLKESGPGILQPSQTLSLTCSFSGFSLSTSGMGVGWIRQPSGKGLEWLAHIWWDDVKRYNPALKSRLTISKDTSSSQVFLKIASVDTADTATYYCVRTFITTTTMDYWGQGTSVTVSS
VL: QIVLTQSPTIMSASPGEKVTLTCSASSGISSSYLYWYQQKPGSSPKLWIYGTSNLASGVPARFSGSGSGTSYSLTISSLEAEDAASYFCHQWSNYPYTFGGGTKLEIK
B12: 3E6 VH4/3E6 VL0 (antibody, V domains shown)
VH: QVQLQESGPGLVKPSQTLSLTCTVSGYSITSGFAWNWIRQPPGNGLEWIGYISHSGSTSYNPSLKSRITISVDTSKNQFSLKLSSVTAADTAVYYCARGYRSPWFAYWGQGTTVTVSS
VL: DIQMTQSPSSLSASVGDRVTITCKASQNVGANVAWYQQKPGKAPKSLIYSASYRYSGVPSRFSGSGSGTDFTLTISSLQPEDFATYYCQQYNSYPTFGGGTKVEIK
notes: Humanized 3E6; VH and VL cloned into vectors with constant regions (CH1-FC/CL) and expressed in 293F cells; also called humanized 3E6 VH4/VL0
B13: 3E6 VH1/3E6 VL0 (antibody, V domains shown)
VH: QVQLQESGPGLVKPSQTLSLTCTVSGYSITSGFAWNWIRQFPGNGLEWMGYISHSGSTSYNPSLKSRVTISVDTSKNQFSLKLSSVTAADTAVYYCARGYRSPWFAYWGQGTTVTVSS
VL: DIQMTQSPSSLSASVGDRVTITCKASQNVGANVAWYQQKPGKAPKSLIYSASYRYSGVPSRFSGSGSGTDFTLTISSLQPEDFATYYCQQYNSYPTFGGGTKVEIK
notes: Humanized 3E6; VH and VL cloned into vectors with constant regions (CH1-FC/CL) and expressed in 293F cells; also called humanized 3E6 VH1/VL0

The first assay concerns the target T1, human TIM-3 recombinant protein (TIM-3-his) (human, UniProt Q8TDQ0 22-202).
T1 construct: also called TIM-3 protein; not shown: His tag
Briefly: biosensor (HFC sensor, Probe Life): antibody captured, TIM-3-his in solution, 1:1 fit.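 Note: antigen applied as a twofold dilution series, association and dissociation phases recorded, KD obtained as koff divided by kon.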
As to B1, the Kd amounted to 1.36 nM, the dissociation rate constant (koff) was found to be 0.00126 s⁻¹ and the kon was determined as 928000 M⁻¹ s⁻¹.
On the same counts, the results for B2 are 188 nM, 0.00153 s⁻¹ and 8130 M⁻¹ s⁻¹.
As for B3, the Kd is 512 nM, the dissociation rate constant (koff) came to 0.00253 s⁻¹ and the kon came out at 4930 M⁻¹ s⁻¹.
Regarding B4, the equilibrium dissociation constant (Kd) is 6 nM, the dissociation rate constant (koff) is 0.00903 s⁻¹ and the kon was determined as 1.51e+06 M⁻¹ s⁻¹.
As to B5, the Kd stood at 1.74 nM, the off-rate constant (koff) was 0.00255 s⁻¹ and the on-rate constant (kon) was found to be 1.47e+06 M⁻¹ s⁻¹.
Turning to B6, the dissociation constant (Kd) stood at 2.84 nM, the koff was determined as 0.00197 s⁻¹ and the kon was found to be 692000 M⁻¹ s⁻¹.
Turning to B7, the Kd was 2.21 nM, the koff was found to be 0.0019 s⁻¹ and the kon is 857000 M⁻¹ s⁻¹.
B8: the Kd is 1.01 nM, the koff was found to be 0.000559 s⁻¹ and the kon stood at 553000 M⁻¹ s⁻¹.
On the same counts, the results for B9 are 0.207 nM, 0.00012 s⁻¹ and 580000 M⁻¹ s⁻¹.
For the molecule B10, the Kd was 553 nM, the off-rate (koff) worked out at 0.00287 s⁻¹ and the kon is 5190 M⁻¹ s⁻¹.
Consider B11, for which the Kd was 0.432 nM, the koff was 0.000383 s⁻¹ and the on-rate (kon) stood at 885000 M⁻¹ s⁻¹.

The target in the next assay is T2, human TIM-3 (human, UniProt Q8TDQ0 22-202, limits assumed).
T2 construct: also called HAVCR2; target antigen
Briefly: BLI (Octet-96); antigen not named in the paragraph. In general terms: Biolayer interferometry detects binding as a change in optical thickness at a sensor tip.
Turning to B12, the affinity, expressed as Kd, was 1.87 nM.
In turn, B13 yielded a dissociation constant Kd of 467 nM.

The target in a further assay is T3, mouse TIM-3 (mouse, UniProt Q8VIM0 20-281).
T3 construct: whole, on cells
Nature of the assay: flow cytometry on cells stably expressing mouse TIM-3, PE-labelled secondary antibody; concentration not shown.
Regarding B9, the binding result is given as “no binding”.

What is called Kd is the constant that tells how readily two partners part at equilibrium. For orientation: koff means a measure of how fast the partners let go of each other. Usually kon stands for the rate constant with which the complex forms.
